What was measured:
[1] = test system: FcγRIIIa (F/F low affinity and V/V high affinity alleles); test: BLI binding affinity to FcγRIIIa (low and high affinity alleles); parameters: species or system human; details: compared with SGN-70
Source text: Parameters are listed Table 1. Biotinylated avi-tagged human FcγR-monomeric Fc N297A LALA-PG and Fc receptor neonatal (FcRN) monomeric Fc N297A IHH fusion proteins (designed and expressed at Seattle Genetics) were loaded onto high precision streptavidin biosensors (ForteBio) to responses between 0.3 to 1 nm following a 100 second sensor check in Buffer A (0.1% bovine serum albumin [BSA], 0.02% Tween20, 1× phosphate-buffered saline [PBS] pH 7.4). After another baseline measurement, titrated antibodies were associated for 600, 10, 100, 50, and 10 seconds and dissociated for 1000, 50, 100, 500, and 50 seconds in Buffer B (1% casein, 0.2% Tween20, 1×PBS pH 7.4) for FcγRI, IIa, IIIa, FcRN pH 6, and FcRN pH 7.4, respectively. Prior to analysis, the references were subtracted in each assay. All the sensorgrams were processed with a Y-axis alignment at the start of association and an inter-step dissociation correction. A 1:1 Langmuir isotherm global fit model was used to fit the curves.

hFcγRIIIa V158 = target: T1, hFcγRIIIa V158 (Homo sapiens, UniProt P08637, F176V); test: BLI binding kinetics to high affinity FcγRIIIa (158V) receptor variant; details: versus SGN-70
T1 construct: made in house
T1 sequence (P08637 17-208 F176V): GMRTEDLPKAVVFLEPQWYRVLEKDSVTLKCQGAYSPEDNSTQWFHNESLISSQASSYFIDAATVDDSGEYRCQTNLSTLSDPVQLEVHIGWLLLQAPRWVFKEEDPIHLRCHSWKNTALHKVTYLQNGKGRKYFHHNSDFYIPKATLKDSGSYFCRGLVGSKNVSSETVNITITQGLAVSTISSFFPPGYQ

[2] = target: T2, cynomolgus FcγRIIIa receptor (Macaca fascicularis, UniProt Q8SPW2); test: CHO-FcγRIIIa binding assay by flow cytometry (cynomolgus receptor); details: compared with SGN-70
T2 construct: expressed in transfected cells; host or cells: CHO
T2 sequence (Q8SPW2 17-254): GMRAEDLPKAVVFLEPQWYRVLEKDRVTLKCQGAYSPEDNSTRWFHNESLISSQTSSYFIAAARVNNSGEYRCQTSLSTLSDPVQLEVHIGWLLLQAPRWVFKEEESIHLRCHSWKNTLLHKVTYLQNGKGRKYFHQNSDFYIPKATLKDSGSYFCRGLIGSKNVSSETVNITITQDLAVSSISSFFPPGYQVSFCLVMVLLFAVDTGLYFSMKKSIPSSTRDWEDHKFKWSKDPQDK
Description: While BLI methodology is used to assess receptor affinity by monitoring binding kinetics, it is primarily set to monitor monovalent binding. To add to BLI data sets, flow cytometry was also performed (FIGS. 2A and 2B).
The CHO-FcγRIIIa binding assay was conducted as follows: • 1. Thaw cells: Cells were thawed on 11 Jun. 2019, and cultured in culture medium for 1 week to recover from freeze-thaw.
• 2. Wash: 60 million cells were washed 1× in PBS in 50-mL tubes. Cells were counted again and resuspended at 2.2×10^6/mL. Then 0.1 mL was pipetted per well • 3. Make 10× dilutions of antibody: The 10× dilutions were prepared (3 mg/mL, 1 mg/mL, 0.3 mg/mL, 0.1 mg/mL, 0.03 mg/mL, 0.01 mg/mL, 0.003 mg/mL, 0.001 mg/mL, and 0.0003 mg/mL in the dilution plate).
• 4. Aspirate: Wash was aspirated in wells and 100 μL of the corresponding antibody dilutions was pipetted with a multichannel pipet. The corresponding concentrations were 300, 100, 30, 10, 3, 1, […] μg/mL in triplicate. The concentrations were decreased vertically down the 96-well round bottom plate. • 5. […] Analyze samples: Samples were analyzed by flow cytometry in high throughput sampler (HTS) mode on the Attune. Median fluorescence intensity (MFI) was graphed (geomean), and equilibrium dissociation constant (KD) for each was calculated in PRIZM

[3] = test system: T regulatory cells (Treg) in PBMCs; test: Treg depletion in PBMCs; type: cell-based, human; details: 24 hours
Description: At the end of the experiment cells were stained with Zombie Aqua Viability Dye and total viable Treg naïve and memory CD4 and CD8 T cell numbers were assessed. […] Fucosylated (WT Clone 13 IgG1) and nonfucosylated (SEA Clone 13 IgG1) antibodies targeting TIGIT were used as positive controls (FIG. 4E-4H).

[4] = test system: MOLM-13 CD70+ target cells; test: ADCP with monocyte-derived macrophages, MOLM-13; type: cell-based, human; details: flow cytometry, antibody dose-dependent
Description: Phagocytosis of fluorescently labeled target cells was determined by flow cytometry. Phagocytosis was measured for the appearance of double-labeled coincident events (fluorescent target cells) and anti-CD11c positivity to identify monocyte/macrophages.
The following protocol was used to assess […] activity on AML cell lines: • 1. Target cells were labeled using the PKH26 Red Fluorescent Cell Linker Mini Kit (Sigma Aldrich) and following the manufacturer's instructions. • 2. Cells (4000 cells/well) were incubated with the indicated test articles for 30 minutes, washed and resuspended in RPMI plus 10% ultra-low IgG FBS. • 3. PBMC-derived macrophages (100,000 cells/well), generated by incubating PBMC-derived monocytes with 500 U/mL (50 ng/mL) GM-CSF for 10-12 days, were added to the target cells and incubated at 37° C. for 2 hours. • 4. Plates were centrifuged and cells resuspended in 100 μl of APC-CD11 antibody (macrophage marker) and incubated on ice for 30 minutes. • 5. Cells were washed, resuspended in PBS and analyzed by flow cytometry to determine the percentage of phagocytosis

[5] = test system: MOLM-13 CD70+ AML cell line; test: CDC with normal human serum, MOLM-13; type: cell-based; details: normal human serum not heat inactivated
Description: AML cell lines positive for CD70 were fluorescently labeled and treated with increasing concentrations of CD70 directed antibodies. Cells were then exposed to human compliment and lysis determined as release of fluorescent dye.
The following protocol was used to assess CDC activity on AML cell lines: • 1. Cells were incubated with […] anti-CRP monoclonal antibodies mix (anti-hCD46, anti-hCD55, anti-hCD59) for 30 minutes on ice. • 2. Cells were washed and plated (200,000 cells/well) in media containing non-heat-inactivated serum, Sytox Green (Life technology), and antibodies, which were added at the indicated final concentration, for 2 hours at 37° C. • 3. Cell dead was quantified by detecting Sitox Green fluorescent signal on an Envison plate reader (Perkin Elmer) and normalized over positive control (1% Triton X-100 treated cells).

B1: SEA-CD70: humanized, nonfucosylated monoclonal IgG1 antibody targeting CD70 (nonfucosylated h1F6) (antibody, chains of the INN, looked up, V domains shown)
VH: QVQLVQSGAEVKKPGASVKVSCKASGYTFTNYGMNWVRQAPGQGLKWMGWINTYTGEPTYADAFKGRVTMTRDTSISTAYMELSRLRSDDTAVYYCARDYGDYGMDYWGQGTTVTVSS
VL: DIVMTQSPDSLAVSLGERATINCRASKSVSTSGYSFMHWYQQKPGQPPKLLIYLASNLESGVPDRFSGSGSGTDFTLTISSLQAEDVAVYYCQHSREVPWTFGQGTKVEIK
modifications: nonfucosylated
With B1 the “binding affinity to FcγRIIIA” value [1] was “much higher binding affinity”, the “increase in binding affinity for the FcγRIIIa (158V) receptor” value (hFcγRIIIa V158) was 8 fold and the “binding affinity to cynomolgus FcγRIIIa on CHO cells” value [2] was “bound with higher affinity than SGN-70”. For the same molecule, the “T regulatory cell depletion” value ([3]; donor homozygous for high affinity FcγRIIIa (V/V 158)) was “did not induce Treg cell depletion”, the “T regulatory cell depletion” value ([3]; donor homozygous for low affinity FcγRIIIa (F/F 158)) was “Neither CD70 targeting antibody induced T regulatory cell depletion” and the “phagocytosis of antibody-coated target cells by macrophages” value [4] was “readily phagocytosed target cells”. The “cell lysis by complement fixation” value [5] was “lysed in an antibody-specific, dose-dependent manner”.

Source: patent publication US11820827B2, “Methods of treating myelodysplastic syndrome and acute myeloid leukemia with nonfucosylated anti-CD70 antibodies” (Seagen Inc., priority 2019, dated 2023)
